Measurements from patent US20260216365A1, “ANTIBODY-DRUG CONJUGATES AGAINST THE RECEPTOR TYROSINE KINASE EPHA5” (Rutgers, The State University of New Jersey, priority 2021, published 2026).
Several values for one entry are separate records, joined by “and”; a condition that tells them apart may be missing. Equal entries are not always repeated. One block for each molecule: values may come before it.

Tests used:
[1] = Thermal ramp stability (UNcle, Sypro Orange fluorescence and static light scattering); type: physicochemical
Excerpt: Thermal ramp stability experiments (Tm and Tagg) are well established methods for ranking proteins and formulations for stability. A protein's denaturation profile provides information about its thermal stability and represents a structural ‘fingerprint’ for assessing structural and formulation buffer modifications. A widely used measure of the thermal structural stability of a protein is the temperature at which it unfolds from the native state to a denatured state. For many proteins, this unfolding process occurs over a narrow temperature range and the mid-point of this transition is termed ‘melting temperature’ or ‘Tm’. To determine the melting temperature of a protein, UNcle measures the fluorescence of Sypro Orange (which binds to exposed hydrophobic regions of proteins) as the protein undergoes conformational changes.
Samples for each variant were formulated in PBS and Sypro Orange at a final concentration of 1 mg/mL. 9 μL of each sample mixture was loaded in duplicate into UNi microcuvettes. Samples were subjected to a thermal ramp from 25-95° C., with a ramp rate of 0.3° C./minute and excitation at 473 nm. Full emission spectra were collected from 250-720 nm, and the area under the curve between 510-680 nm was used to calculate the inflection points of the transition curves (Tonset and Tm). Monitoring of static light scattering (SLS) at 473 nm allowed the detection of protein aggregation, and Tagg (onset of aggregation) was calculated from the resulting SLS profiles. Thermal stability values determined lie in a broad range from 57.9 to 69.6° C. (Tm1), 55.1 to 65.2° C. (Tonset) and 65.6 to 70.2° C. (Tagg) with the humanized leads generally showing improved profiles when compared to the chimeric antibody. […] All humanized antibodies appear to have a higher Tm1, Tonset and Tagg compared to the chimeric antibody.

[2] = target: T1, recombinant human EphA5 (rhEphA5) antigen (Homo sapiens, UniProt P54756); test: Biacore multi-cycle kinetic analysis of purified antibodies, 1:1 model; type: binding; details: for binding to EphA5 relative to the chimeric antibody (VH0/VK0): purified antibodies, multi-cycle kinetics
T1 construct: purchased R and D systems 3036-A5
Description: In order to assess the binding of the six lead humanized variants to rhEphA5 antigen, multi-cycle kinetic analysis (FIG. 68) was performed on purified material. Kinetic experiments were performed at 25° C. on a Biacore T200 running Biacore T200 Control software V2.0.1 and Evaluation software V3.0 (GE Healthcare, Uppsala, Sweden).
HBS-P+ (GE Healthcare, Uppsala, Sweden), supplemented with 1% BSA w/v (Sigma, Dorset, UK) was used as running buffer as well as for ligand and analyte dilutions. Purified lead antibodies were diluted to 0.5 μg/mL in running buffer and at the start of each cycle, loaded onto Fc2, Fc3 and Fc4 of an anti-human IgG CM5 sensor chip (GE Healthcare, Little Chalfont, UK). Antibodies were captured at a flow rate of 10 μl/min to give an immobilization level (RL) of ~50 RU. The surface was then allowed to stabilize.
Multi-cycle kinetic data was obtained using recombinant EphA5 as the analytes injected at a flow rate of 30 μl/min to minimize any potential mass transfer effects. A five point, three-fold dilution range from 1.11 nM to 270 nM of EphA5 was prepared in running buffer. For each concentration, the association phases were monitored for 210 seconds and the dissociation phase was measured for 900 seconds. Regeneration of the sensor chip surface was conducted between cycles using two injections of 3 M MgCl2. Multiple repeats of a blank and of EphA5 were programmed into the kinetic run in order to check the stability of both the surface and analyte over the kinetic cycles.
The signal from the reference channel Fc1 (no IgG captured) was subtracted from that of Fc2, Fc3 and Fc4 to correct for bulk effect and differences in non-specific binding to a reference surface. The signal from each IgG blank run (IgG captured but no antigen) was subtracted to correct for differences in surface stability. The double referenced sensorgrams were fitted with the Langmuir (1:1) binding model where the closeness of fit of the data to the model is evaluated using the Chi square value which describes the deviation between the experimental and fitted (observed and expected) curves. The fitting algorithm seeks to minimize the Chi square value.
A summary of the kinetic constants determined from the 1:1 model fitted curves is shown in FIG. 19 with fitted curves shown in FIG. 20.

[3] = target: T2, H460 cell line stably expressing EphA5 (Homo sapiens, UniProt P54756); test: Flow cytometry analysis of cell binding, EphA5-positive cells; details: starting 10 μg/ml, four-fold serial dilution, 4° C. 30 minutes
T2 construct: A H460 cell line stably expressing EphA5 (provided by Rutgers) was used; endogenous in cells; host or cells: H460 human lung carcinoma cells (provided by Rutgers)
Description: (§1) A H460 cell line stably expressing EphA5 (provided by Rutgers) was used, alongside H226 cells as a negative control, to test for antibody binding in a flow cytometry assay. The cell lines were first assessed for target expression using 10 μg/ml of the murine 11C12 provided by Rutgers) and MolgG1 non-binging control (Biolegend, California, US). Goat anti-mouse Alexa Fluor 647 (Thermo Fisher, Loughborough, UK) was used for antibody detection.
(§2) For cell binding assays, both cell lines were resuspended in FACS buffer (PBS+1% BSA+0.1% sodium azide) and seeded in 96 well U bottom plates at 1×105 (100 μl) cells per well. The chimeric and six purified humanized variants were tested in the assay alongside the 11C12 murine positive control, MolgG1 and HulgG1 non-binding controls. Samples were prepared at a starting concentration of 10 μg/ml in FACS buffer and underwent a four-fold seven point serial dilution for testing with H460 cells and a three-fold three point serial dilution for the H226 cells. […] Median fluorescence intensity (MFI) was measured using an Attune NxT Flow Cytometer (Thermo Fisher, Loughborough, UK) and 10,000 gated events were acquired per sample. For data analysis, live cell populations were gated based on the forward and side scatter dot plot allowing the Alexa Fluor 647 MFI values to be measured in the RL1 channel.

H226 cells (EphA5−) = test: Flow cytometry analysis of cell binding, EphA5-negative control cells; set-up: species or system human; details: starting 10 μg/ml, three-fold serial dilution
Description: as §1, §2

T1 sequence (P54756 25-573 limits assumed): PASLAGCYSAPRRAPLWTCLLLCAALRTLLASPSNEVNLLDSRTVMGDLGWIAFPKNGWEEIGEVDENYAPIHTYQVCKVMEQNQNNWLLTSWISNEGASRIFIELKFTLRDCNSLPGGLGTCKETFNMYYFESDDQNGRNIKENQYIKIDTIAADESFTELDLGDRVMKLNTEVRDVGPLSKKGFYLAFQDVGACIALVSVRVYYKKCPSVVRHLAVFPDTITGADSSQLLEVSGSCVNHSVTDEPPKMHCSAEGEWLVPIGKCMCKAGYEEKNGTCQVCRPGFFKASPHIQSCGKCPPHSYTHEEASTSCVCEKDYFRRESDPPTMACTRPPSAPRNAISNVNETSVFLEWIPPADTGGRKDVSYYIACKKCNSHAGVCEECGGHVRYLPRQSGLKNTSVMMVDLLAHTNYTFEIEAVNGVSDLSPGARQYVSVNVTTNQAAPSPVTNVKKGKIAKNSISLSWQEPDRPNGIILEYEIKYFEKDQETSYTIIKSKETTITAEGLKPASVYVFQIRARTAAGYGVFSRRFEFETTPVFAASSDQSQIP
T2 sequence (P54756 25-1037): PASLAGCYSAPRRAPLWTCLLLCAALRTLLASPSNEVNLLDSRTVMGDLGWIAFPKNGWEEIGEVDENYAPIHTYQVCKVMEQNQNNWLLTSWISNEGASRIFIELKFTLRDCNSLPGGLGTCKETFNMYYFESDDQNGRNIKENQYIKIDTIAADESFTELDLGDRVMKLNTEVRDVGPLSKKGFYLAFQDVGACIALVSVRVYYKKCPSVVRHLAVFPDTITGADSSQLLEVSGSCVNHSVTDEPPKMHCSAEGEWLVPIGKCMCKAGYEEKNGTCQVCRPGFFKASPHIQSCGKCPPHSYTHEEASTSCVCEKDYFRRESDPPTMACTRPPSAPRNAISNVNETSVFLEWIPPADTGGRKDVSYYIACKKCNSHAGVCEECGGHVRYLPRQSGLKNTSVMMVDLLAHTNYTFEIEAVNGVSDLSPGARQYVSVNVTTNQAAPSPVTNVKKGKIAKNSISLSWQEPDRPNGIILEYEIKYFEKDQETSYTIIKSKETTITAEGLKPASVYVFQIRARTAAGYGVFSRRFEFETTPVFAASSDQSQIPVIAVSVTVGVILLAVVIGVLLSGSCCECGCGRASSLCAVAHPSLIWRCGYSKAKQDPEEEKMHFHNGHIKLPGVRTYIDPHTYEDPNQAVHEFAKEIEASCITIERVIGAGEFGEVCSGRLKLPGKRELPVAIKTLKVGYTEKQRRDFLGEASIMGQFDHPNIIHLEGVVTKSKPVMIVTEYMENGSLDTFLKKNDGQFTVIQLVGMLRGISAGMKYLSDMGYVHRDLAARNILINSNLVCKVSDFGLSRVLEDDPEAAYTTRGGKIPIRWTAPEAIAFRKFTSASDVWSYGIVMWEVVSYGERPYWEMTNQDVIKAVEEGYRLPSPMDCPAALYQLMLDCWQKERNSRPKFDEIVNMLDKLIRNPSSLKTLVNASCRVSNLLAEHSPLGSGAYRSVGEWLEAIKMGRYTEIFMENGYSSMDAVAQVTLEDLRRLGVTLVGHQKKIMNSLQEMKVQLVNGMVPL

B1: VH0/VK0: chimeric anti-EphA5 antibody, murine 11C12 variable regions (VH SEQ ID NO:1, VL SEQ ID NO:8), human IgG1/kappa constant regions (antibody, V domains shown)
VH: EVTLKESGGGLVQPGGSRKLSCAASGFTFSTFGIHWVRQAPEKGLEWVAYISGASTTIYYADTVKGRFTISRDNPKNTLFLQMTSLRSEDTAMYYCARYGTSFPYGLDYWGQGTSVTVSS
VL: DIVMTQSPGSLAVSLGQRATISCKASQSVDYDGDSYMNWYQQKPGQPPKLLIYGASNLESGIPARFSGSGSGTDFTLNIHPVEEEDAASYYCQQSNEDPFTFGSGTKLEIK
modifications: human IgG1/kappa constant regions without entry
Average Tm2 (° C.) ([1]; average of duplicates): 65.83 °C | Average Tonset (° C.) ([1]; average of duplicates): 55.1 °C | Average Tm1 (° C.) ([1]; average of duplicates, 1 mg/mL in PBS): 57.9 °C | Average Tagg 473 (° C.) ([1]; average of duplicates, SLS at 473 nm): 65.6 °C | Tonset (° C.) ([1]; single replicate): 54.92 °C and 55.23 °C | Tm2 (° C.) ([1]; single replicate, 1 mg/mL in PBS): 65.83 °C | Tm1 (° C.) ([1]; single replicate, 1 mg/mL in PBS, ramp 25-95° C.): 57.83 °C and 57.87 °C | Tagg 473 (° C.) ([1]; single replicate, SLS at 473 nm): 65.72 °C and 65.60 °C | number of thermal transitions detected ([1]; thermal ramp 25-95° C.): two transitions | kd ([2]; Biacore T200, 25° C., IgG captured on anti-human IgG chip): 0.0015 s⁻¹ | RMAX ([2]; fitted 1:1 model): 47.8

B2: 11C12: anti-human EphA5 monoclonal murine antibody, parental antibody and positive control (antibody, V domains shown)
VH: EVTLKESGGGLVQPGGSRKLSCAASGFTFSTFGIHWVRQAPEKGLEWVAYISGASTTIYYADTVKGRFTISRDNPKNTLFLQMTSLRSEDTAMYYCARYGTSFPYGLDYWGQGTSVTVSS
VL: DIVMTQSPGSLAVSLGQRATISCKASQSVDYDGDSYMNWYQQKPGQPPKLLIYGASNLESGIPARFSGSGSGTDFTLNIHPVEEEDAASYYCQQSNEDPFTFGSGTKLEIK
binding to H460 (EphA5+) cells, MFI dose response [3]: bound to the positive cell line in a concentration dependent manner | binding to H226 (EphA5−) cells (H226 cells (EphA5−)): no binding

B3: VH3/VK4: humanized anti-EphA5 IgG1/kappa antibody; VH SEQ ID NO:4, VL SEQ ID NO:12 (antibody, V domains shown)
VH: EVQLVESGGGLVQPGGSLKLSCAASGFTFSTFGIHWVRQAPGKGLEWVAYISGASTTIYYADTVKGRFTISRDNSKNTLYLQMNSLRSEDTAMYYCARYGTSFPYGLDYWGQGTLVTVSS
VL: DIVMTQSPDSLAVSLGERATINCKSSQSVDYDGDSYMNWYQQKPGKAPKLLIYGASNLESGIPDRFSGSGSGTDFTLTISRLEPEDAASYYCQQSNEDPFTFGQGTKLEIK
binding to EphA5 relative to the chimeric antibody (VH0/VK0) [2]: within two-fold of the chimeric antibody

B4: VH4/VK4: humanized anti-EphA5 IgG1/kappa antibody; VH SEQ ID NO:5, VL SEQ ID NO:12 (antibody, V domains shown)
VH: EVQLVESGGGLVQPGGSLKLSCAASGFTFSTFGIHWVRQAPGKGLEWVAYISGASTTIYYADTVKGRFTISRDNSKNTLYLQMNSLRAEDTAVYYCARYGTSFPYGLDYWGQGTLVTVSS
VL: DIVMTQSPDSLAVSLGERATINCKSSQSVDYDGDSYMNWYQQKPGKAPKLLIYGASNLESGIPDRFSGSGSGTDFTLTISRLEPEDAASYYCQQSNEDPFTFGQGTKLEIK
binding to EphA5 relative to the chimeric antibody (VH0/VK0) [2]: within two-fold of the chimeric antibody

Now from value to molecule, other results behind:

binding to EphA5 relative to the chimeric antibody (VH0/VK0) [2]: within two-fold of the chimeric antibody
B5: VH5/VK4: humanized anti-EphA5 IgG1/kappa antibody; VH SEQ ID NO:6, VL SEQ ID NO:12 (antibody, V domains shown)
VH: EVQLVESGGGLVQPGGSLKLSCAASGFTFSTFGIHWVRQAPGKGLEWVAYISGASTTIYYADSVKGRFTISRDNSKNTLYLQMNSLRAEDTAVYYCARYGTSFPYGLDYWGQGTLVTVSS
VL: DIVMTQSPDSLAVSLGERATINCKSSQSVDYDGDSYMNWYQQKPGKAPKLLIYGASNLESGIPDRFSGSGSGTDFTLTISRLEPEDAASYYCQQSNEDPFTFGQGTKLEIK
ranking by Tagg (SLS profiles) ([1]; among the chimeric and six lead humanized variants): highest Tagg values

binding to EphA5 relative to the chimeric antibody (VH0/VK0) [2]: within two-fold of the chimeric antibody
B6: VH5/VK2: humanized anti-EphA5 IgG1/kappa antibody; VH SEQ ID NO:6, VL SEQ ID NO:10 (antibody, V domains shown)
VH: EVQLVESGGGLVQPGGSLKLSCAASGFTFSTFGIHWVRQAPGKGLEWVAYISGASTTIYYADSVKGRFTISRDNSKNTLYLQMNSLRAEDTAVYYCARYGTSFPYGLDYWGQGTLVTVSS
VL: DIVMTQSPDSLAVSLGERATINCKASQSVDYDGDSYMNWYQQKPGKAPKLLIYGASNLESGIPDRFSGSGSGTDFTLTISRLEPEDAASYYCQQSNEDPFTFGQGTKLEIK
